Test results: publication doi:10.1101/2021.12.30.474520
Where two headings read alike, the source gives them in different places.

How the values were obtained:
[1] = molecular target: human SETD3 (residues 1-497) (human) (UniProt Q86TU7); assay: ITC
[2] = molecular target: human SETD3 (residues 1-497) (human) (UniProt Q86TU7); assay: ITC; remark: listed apart in the source

Kd [1] [µM] | Kd [2] [µM] | Substance
48.5 | 44.4 | β-actin peptide, residues 66-81, with 3-pyridylalanine at position 73 (βA-3PyrAla73) (from UniProt P60709 66-81)
39.2 | 7.2 | β-actin peptide, residues 66-81, with ornithine at position 73 (βA-Orn73) (from UniProt P60709 66-81)
4.9 | 3.1 | β-actin peptide, residues 66-81, with 4-pyridylalanine at position 73 (βA-4PyrAla73) (from UniProt P60709 66-81)
4 | 0.8 | β-actin peptide, residues 66-81, with β-triazolylalanine at position 73 (βA-βTriaA73) (from UniProt P60709 66-81)
